Assay results published in patent US9750823B2, “Use of a truncated CCN1 promoter for cancer diagnostics, therapeutics and theranostics” (priority 2013, dated 2017).

B1: tCCN1-Prom: truncated CCN1 cancer selective promoter, SEQ ID NO: 1; tested in reporter plasmid pGL3.CCN1-luc (pCCN1-luc) (nucleic acid)
DNA: TCCAAAAACAAACAAGTACAACATACCCAAAAGAGGGAAGGGCTGGAGGAGTGGGGGAGACCTCTGCCTGGGAATTTGCCAGACGATGGGCAAGTTTCCCCCCGCCCCACCCCCCCCCCCGCCTTTTCATTCATAAATGCCACTGTGGGTATTAATTTGCAATTCACTGAACTTTGCTAATAAACATCATGCCAAAGCTTTGGGACTTGTTCCGAACACGCCTCTTTGAAGTCCACAAATATTCCTGACTCAGAGACACACTCCTCTTCCCCGTTCTACTCTTTCAACAGATAACTTGCCTCTCACCTTCGCTGTAAAAAAGCAAACAGCTCACTGCCTTCCCGGGTGAGGGCTTCAGTGGCTGCCCGGTCAACTCGCATCACCAAACAAAACGACTTTTGTTCCTCCCTCTCAGGTCCTCCCACCCACCCAGTCCAGGCAAAGTTCTGAACTGGCCCCCTCGCCCCTCACGACCCTCCAACTACCATCACCACCATCACGCCCCAAAGAACCCTTCCCAACATAAGTCGTAATTTAAGGTGGAAAAAACGAACTGTTTTCTTGACGGGTCTGGGACACACACACACACACACACACACACACACACCGAACTGTTTTCTTGACGGGTCTGGGAGACACACACACACACACACACACACACACACACACACACACACACACAAAGGTGCAATGGGGCCAGGGGAGGCGCTTGGCAGCAGCCCGCGCCAACCAGCATTCCTGAGATGTTTGAGAATTCTGGAACGCGCAGACAGAGCCGACGTCACTGCAACACGCGGCGCCTCCGCCGGCCCGTATAAAAGGCGGGCTCCGGGGCGCC
modifications: Synthetic promoter

Tests used:
[1] = test system: src-, raf-, ras- and HPV-transformed CREF cells; assay: Luciferase reporter assay of p-CCN1-luc and/or TPA in transformed CREF cells; type: cell-based, rat; conditions: for effect on expression of the tCCN1-Prom: TPA 200 ng/ml
Procedure: FIGS. 1A and B. tCCN1 promoter activity in Prostate cancer (PC) and cloned rat embryo fibroblast (CREF) series of cell lines. […] B. src-, raf-, ras- and HPV-transformed CREF cells were treated with p-CCN1-luc and/or TPA (200 ng/ml).

[2] = test system: prostate cancer cells lines DU-145, PC-3, ARCaP, ARCaP-E, ARCaP-M and normal human prostate epithelial cell lines RWPE-1 and P69; assay: Dual-luciferase reporter assay of promoter activity (pCCN1-luc vs pPEG-luc); type: cell-based; conditions: pGL3-luc reporter, normalized with pRL-TK
Excerpt: FIGS. 1A and B. tCCN1 promoter activity in Prostate cancer (PC) and cloned rat embryo fibroblast (CREF) series of cell lines. A. Prostate cancer DU-145, PC-3, ARCaP, ARCaP-E, and ARCaP-M cells and normal RWPE-1 and P69 cells were transfected with pGL3-luc reporter vector driven by PEG-Prom (pPEG-luc) or tCCN1-Prom (pCCN1-luc). pRL-TK (Renilla luciferase) was co-transfected for the normalization of luciferase activity, and the luminescence readings were plotted as relative luminescence units (RLU). *(p<0.05), **(p<0.01) and ***(p<0.001) indicates the statistical significance by using t-test between pPEG-luc and pCCN1-luc transfected cells. B. src-, raf-, ras- and HPV-transformed CREF cells were treated with p-CCN1-luc and/or TPA (200 ng/ml). The results were recorded as RLU. *(p<0.05) and **(p<0.01) indicates the statistical significance between pCCN1-luc and pCCN1-luc plus TPA treated cells.
Prostate cancer cells were plated at seeding density of 30,000 cells/well in quadruplicate in 24-well cell culture plate. After 24 h, cells were transfected with either pGL3.PEG-luc or pGL3.CCN1-hie using Fugene® HD transfection reagent (Promega, Madison, Wis., USA). […] Cells were lysed after 48 h of post transfection and luminescence was studied using Dual-luciferase Reporter® Assay system (Promega) with luminometer. […]

[3] = test system: breast, brain (including Glioblastoma multiforme, GBM) and melanoma; assay: tCCN1-Prom expression in additional human cancers vs normal counterparts (data not shown); type: cell-based

Molecule	effect on expression of the tCCN1-Prom [1]	tCCN1-Prom activity compared with PEG-Prom (relative luminescence units) [2]	tCCN1-Prom expression in additional human cancers vs normal counterparts [3]	tCCN1-Prom activity in transformed CREF cells ([1]; src-, raf-, ras- and HPV-transformed CREF cells)
CCCCCCCCCCCCCC(=O)O[C@@H]1[C@@H](C)[C@@]2(O)[C@@H](C=C(CO)C[C@]3(O)C(=O)C(C)=C[C@@H]23)[C@@H]2C(C)(C)[C@]12OC(C)=O [TPA]	increased the expression of the tCCN1-Prom			
Nc1ncnc2c1ncn2[C@@H]1O[C@@H]2COP(=O)(O)O[C@H]2[C@H]1O [cyclic adenosine mono-phosphate (AMP), cyclic adenosine mono-phosphate]	increased the expression of the tCCN1-Prom			
B1		more active than the PEG-Prom in prostate cancer cells as compared to normal counterparts RWPE-1 and P69	elevated expression in additional human cancers vs. normal immortal or primary normal counterparts	elevated as a function of transformation of CREF cells by diverse acting oncogenes
